Assay results taken from patent US20230080224A1 (AGENCY FOR SCIENCE TECHNOLOGY AND RESEARCH, published 2023).
Where a chain is given by its changes, count along the chain named.

T1: ALPI (screening and SPR/ELISA protein) (UniProt P09923 20-503, limits assumed)
T1 sequence (looked up): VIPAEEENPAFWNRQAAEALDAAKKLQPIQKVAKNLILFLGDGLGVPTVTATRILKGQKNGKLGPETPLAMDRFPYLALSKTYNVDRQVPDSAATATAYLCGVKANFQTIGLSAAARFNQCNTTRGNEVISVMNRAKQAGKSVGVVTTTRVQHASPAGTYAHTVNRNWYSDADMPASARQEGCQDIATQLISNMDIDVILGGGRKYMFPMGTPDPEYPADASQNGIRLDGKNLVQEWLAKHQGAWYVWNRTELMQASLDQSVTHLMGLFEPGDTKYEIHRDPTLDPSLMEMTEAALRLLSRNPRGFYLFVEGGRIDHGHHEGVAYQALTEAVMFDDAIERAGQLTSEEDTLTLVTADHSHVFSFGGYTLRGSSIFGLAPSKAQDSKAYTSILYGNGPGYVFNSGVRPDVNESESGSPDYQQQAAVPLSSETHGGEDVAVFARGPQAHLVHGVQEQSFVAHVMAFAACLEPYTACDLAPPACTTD

T2: human ALPPL2 (recombinant protein) (human, UniProt P10696 20-503)
T2 chain: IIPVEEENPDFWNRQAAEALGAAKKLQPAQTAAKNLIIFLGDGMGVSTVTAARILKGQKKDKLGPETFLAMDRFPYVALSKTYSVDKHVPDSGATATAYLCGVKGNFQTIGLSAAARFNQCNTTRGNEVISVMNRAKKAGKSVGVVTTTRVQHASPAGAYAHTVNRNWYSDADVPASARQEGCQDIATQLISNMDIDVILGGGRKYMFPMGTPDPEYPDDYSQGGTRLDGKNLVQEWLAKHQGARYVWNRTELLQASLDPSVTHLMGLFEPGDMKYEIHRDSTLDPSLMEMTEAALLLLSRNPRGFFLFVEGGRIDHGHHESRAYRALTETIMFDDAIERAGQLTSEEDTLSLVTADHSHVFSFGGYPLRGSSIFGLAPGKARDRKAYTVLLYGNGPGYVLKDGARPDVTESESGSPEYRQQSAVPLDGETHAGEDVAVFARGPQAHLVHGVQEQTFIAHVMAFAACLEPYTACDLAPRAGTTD

B1: AB2C102 (antibody, V domains shown)
VH: QQQLEESGGDLVQPGASLTLTCTASGFSFNSNYWMCWGRQAPGKGLEWIGCILFGNTDTYYANWAKGRFTISKTSSTTVTLQMTSLTAADTATYFCARSVSGVGSAWNLWGPGTLVTVSS
VL: IVMTQTPSSKSVPVGDTVTINCQASESVYNNNHLAWYQQKPGQSPKLLIYLASILDSGVPSRFKGSGSGTQFTLTISDVVCDDAATYYCAGYKGITIDGSAFGGGTELVVK
notes: Rabbit antibody cloned from a single B cell
B2: AB1C10 (antibody, V domains shown)
VH: QSLEESGGDLVKPGASLTLTCTASGFDFSSNGMCWVRQAPGKGLEWIACIYVDSSDNTNYASWVNGRFTISRTSSTTVTLQMTSLTAADTATYFCARGYGYVGSAMDLWGQGTLVTVSS
VL: DIVMTQTPASVEAAVGGTVTIKCQASQSINNELSWYQQKPGQRPKLLIYGASTLESGVPSRFSGSGSGTEFTLTISDLECADAATYYCQSAYYSSSSSYANTFGGGTEVVVK
notes: as for B1
B3: AB1C25 (antibody, V domains shown)
VH: B2 VH with N57S, N59Y
VL: B2 VL with N30S, V111A, K112A
notes: as for B1
B4: AB1C31 (antibody, V domains shown)
VH: B2 VH with T79D, Q81K
VL: B2 VL with N30S
notes: as for B1
B5: AB1C39 (antibody, V domains shown)
VH: QSLEESGGDLVKPGASLTLTCTASGFSFSSSYYMCWVRQAPGKGLEWIACIYAGSSGGTYYASWAKGRFTISKTSSTTVTLQMTSLTAADTATYFCARAFSYYYSDGYTGYAYGLWGPGTLVTVSS
VL: DIVMTQTPASVEAAVGGTVTIKCQASQSISSYLAWYQQKPGQPPKLLIYRASTLASGVPSRFKGSGSGTQFTLTISDLECADAATYYCQGAYYSSSSSYGFGGGTEVVVK
notes: as for B1
B6: AB2C124 (antibody, V domains shown)
VH: QEQLVESGGGLVQPEGSLTLTCTASGFSFSSSYFMCWVRQAPGKGLEWIACIYTGDGNNYYASWAKGRFTISKTSSTTVTLQMTSLTAADTATYFCSRGGSYYAYGYAGYDYYPDAFDYWGPGTLVTVSS
VL: B5 VL with A13V, A34S, G90S, A91Y, S97G
notes: as for B1
B7: AB2C127 (antibody, V domains shown)
VH: QSLEESGGDLVKPGASLTLTCTASGFSFNSYYMCWVRQAPGKGLEWIACISGGSSDNTYYASWAKGRFTTSKTSSTTVTLQMTSLTAADTATYFCARDIPRSGYFGCDLWGPGTLVTVSS
VL: VVMTQTPASVSEPVGGTVTIKCQASQNIYSNLAWYQQKPGQRPKLLIYGASNLESGVPSRFKGSGSGTEYTLTISNLECADAATYYCQSTVYNSNYANTFGGGTEVVVK
notes: as for B1
B8: AB1C18 (antibody, V domains shown)
VH: QSLEESGGDLVKPGASLTLTCTASGFSFSSYWTCWVRQAPGKGLEWLGCTDGGSSGDTYYATWAKGRVAISKTSSTTVTLQVTSLTAADTATYFCARNLITWDLWGPGTLVTVSS
VL: IVMTQTPSSKSVPVGDTVTINCQASESVYNNNQLSWFQQKPGQPPKLLIYWASKLASGVPSRFKGSGSGTQFTLTISDVVCDDAATYYCAGYKSSITDGNAFGGGTEVVVK
notes: as for B1
B9: AB2C129 (antibody, V domains shown)
VH: QSLEESGGDLVKPGASLTLTCTASGFSFSSSYWICWVRQAPGKGLEWIACIYAGSSGDTYYASWAKGRFTISKTSSTTVTLQTTSLTAADTATYFCARAEYIDGYADYTYTTLYYFDLWGPGTPVTVSS
VL: DVVMTQTPASVSEPVGGTVTINCQASESINSWLAWYQQKPGQPPKLLIYSASTLASGVPSRFKGSGSGIEFTLTISDLECADAATYFCQSYYSFSRFAFGGGTEVVVK
notes: as for B1
B10: AB1C19 (antibody, V domains shown)
VH: QSLEESGGDLVQPEGSLTLTCKASGFDFSTNIMCWVRQAPGKGLEWIACIYAGDGSTYYASWVNGRFTISKTSSTTVTLQMTSLTAADTATYFCARASTYWNYGYAGYGYYPGYFNLWGPGTLVTVSS
VL: DIVMTQTPASVEAAVGGTVTIKCQASQSIISALAWYQQKPGQPPKLLIYAASTLASGVPSRFKGSGSGTQFTLTISDLECADAATYYCQTYAYSTKSNYGSVFGGGTEVVVK
notes: as for B1
B11: AB2C131 (antibody, V domains shown)
VH: QSLEESGGGLVQPEGSLTLTCTASGFSFSSSYYMCWVRQAPGKGLEWIACIYAGSTFSTYYASWAKGRFTISKTSSTTVTLQMTSLTAADTATYFCARSDSYYTYGYAGYAYAIFNLWGPGTLVTVSS
VL: LVMTQTPSSVSAAVGGTVTINCQASESIYSNLAWYQQKPGQPPKLLIYLASTLASGVPSRFKGSGSGTEFTLTISDLECADAATYYCQSAYYSSSADIAFGGGTEVVVK
notes: as for B1
B12: AB1C12 (antibody, V domains shown)
VH: QSLEESGGDLVKPGASLTLTCTASGFSFSSSYWISWVRQAPGKGLEWIACIAIGSSGTTYYASWAKGRFTISKTSSTTVTLQMTSLTAADTATYFCARSGDGYTYVELWGPGTLVTVSS
VL: DVVMTQTPASVSEPVGGTVTIKCQASQSISSYLAWYQQKPGQPPKLLIYRASTLASGVPSRFKGSGSGTQFTLTISDLECADAATYYCQNYYDIDDSDNTFGGGTEVVVK
notes: as for B1
B13: AB2C133 (antibody, V domains shown)
VH: QSLEESGGDLVKPGASLTLTCTASGLDFSSSYWICWVRQAPGKGLEWIGCIKTATETTVYASWAKGRFTISKTSSTTVTLQMTSLTAADTATYLCAKTYADNGGYINLWGPGTLVTVSS
VL: LVMTQTPSSVSAAVGGTVTINCQASQNIYNNLAWYQQKPGQRPKLLIYGASNLESGVPSRFKGSGSGTEYTLTISDLECDDAATYYCQSADLTSSINVFGGGTEVVVK
notes: as for B1
B14: AB1C29 (antibody, V domains shown)
VH: QEHLEESGGGLVKPEGSLTLTCTASGFSFSSSYYMCWVRQAPGKGLEWIACIYPDDGNTYYASWAKGRFTISKTSSTTVTLQMTSLTAADTATYFCARALAYYAYVDGGHSYAINDFDLWGPGTLVTVSS
VL: QVLTQTPSSVSAAVGGTVTINCQSSQSVFSNDYFSWYQQKPGQPPKLLIYDASRLASGVPSRFKGSGSGTQFTLTISGVQCDDAATYYCQGTYYSSAWYNAFGGGTEVVVK
notes: as for B1
B15: AB2C136 (antibody, V domains shown)
VH: QEQLEESGGDLVKPGASLTLTCTASGFSFNSNYYMCWVRQAPGKGLEWIACIYTGIVVPTYYASWAKGRFTISKTSSTTVTLQMTSLTAADTATYFCARDPYVGSSYIYNLWGPGTLVTVSS
VL: LVMTQTPSPVSAAVGSTVTISCQSSQSVYNNNNLAWYQQKPGQPPKLLIYSASSLASGVPSRFKGSGSGTQFTLTISGVECDDAATYYCAGYKTYSNNENAFGGGTEVVVK
notes: as for B1

What follows are binders tested against T3, human ALPPL2 (recombinant protein) (human, UniProt P10696 20-503, limits assumed) (assay: screen of rabbit B-cell clones by ELISA and FACS).
T3 construct: biotinylated where captured on streptavidin
Excerpt: (§1) Specific clones were screened and identified by ELISA and high throughput flow cytometry (FIG. 3). Rabbit kidney cells were transfected with either truncated (for ELISA screen) or full-length (for FACS screen) ALPI and ALPPL2.
B1: binds.
B2: binds.
B3: binds.
B4: binds.
B5: binds.
B6: binds.
B7: binds.
B8: binds.
B9: binds.
B10: binds.
B11: binds.
B12: binds.
B13: binds.
B14: binds.
B15: binds.

These binders were tested against T1, ALPI (screening and SPR/ELISA protein) (assay: screen of rabbit B-cell clones by ELISA and FACS).
Excerpt: as §1
B1: no binding.
B2: no binding.
B3: no binding.
B4: no binding.
B5: no binding.
B6: no binding.
B7: no binding.
B8: no binding.
B9: no binding.
B10: no binding.
B11: no binding.
B12: no binding.
B13: no binding.
B14: no binding.
B15: no binding.

Target: T2, human ALPPL2 (recombinant protein)
Experiment: BLI; single concentration
B1 gave a Kd of 0.5 nM.
In the case of B2, the Kd is reported as 0.15 nM.
For B3, the Kd was 1.4 nM.
Work on B4 yielded a Kd of 0.4 nM.
In the case of B5, the Kd is reported as 2 nM.
For B6, the Kd was 1.6 nM.
B7 was tested, and the Kd was 1.7 nM.
B8 showed a Kd of 1.4 nM.
B9 showed a Kd of 0.001 nM.
Binder B10 has a Kd of 1.69 nM.
B11 was tested, and the Kd was 8 nM.
Binder B12 has a Kd of 0.8 nM.
In the case of B13, the Kd is reported as 1 nM.
For B14, the Kd was 0.2 nM.
Work on B15 yielded a Kd of 0.1 nM.
